Assay [1] addresses T1, GARS, endogenous in H929 multiple myeloma cells (human, UniProt P41250 37-739, limits assumed).
T1 construct: Native protein pulled down from H929 lysates; also called Glycyl-tRNA synthetase; GlyRS
T1 sequence: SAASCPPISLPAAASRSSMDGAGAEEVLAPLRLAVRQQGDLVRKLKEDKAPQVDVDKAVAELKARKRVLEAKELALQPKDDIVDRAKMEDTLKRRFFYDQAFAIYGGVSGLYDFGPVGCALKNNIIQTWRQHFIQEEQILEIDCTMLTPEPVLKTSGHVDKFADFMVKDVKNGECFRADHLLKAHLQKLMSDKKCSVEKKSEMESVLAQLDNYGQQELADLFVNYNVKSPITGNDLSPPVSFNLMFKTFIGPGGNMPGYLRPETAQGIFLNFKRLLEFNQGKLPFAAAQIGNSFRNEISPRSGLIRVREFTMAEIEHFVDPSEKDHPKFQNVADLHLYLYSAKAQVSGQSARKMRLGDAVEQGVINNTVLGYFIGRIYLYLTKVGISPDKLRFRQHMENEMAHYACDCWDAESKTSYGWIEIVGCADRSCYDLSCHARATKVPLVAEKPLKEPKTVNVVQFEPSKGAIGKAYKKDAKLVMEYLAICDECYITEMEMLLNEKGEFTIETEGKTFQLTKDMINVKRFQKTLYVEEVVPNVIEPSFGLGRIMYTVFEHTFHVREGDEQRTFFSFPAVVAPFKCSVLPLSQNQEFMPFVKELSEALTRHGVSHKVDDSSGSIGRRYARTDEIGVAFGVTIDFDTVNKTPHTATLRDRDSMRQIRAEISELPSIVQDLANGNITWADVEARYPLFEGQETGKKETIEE
Briefly: flow cytometry, H929 + CADM1 siRNA; None 0.89; surface target GARS putative. (In general: Flow cytometry measures light scatter and fluorescence of single cells or particles in a stream.)

The target of assay [2] is T1, GARS, endogenous in H929 multiple …. As to the kind of experiment: flow cytometry, H929 + NT Green siRNA; None 1.35; surface target GARS putative.
Another assay deals with T2, DCC.
T2 construct: also called DCC-His (R&D Systems)
T2 chain: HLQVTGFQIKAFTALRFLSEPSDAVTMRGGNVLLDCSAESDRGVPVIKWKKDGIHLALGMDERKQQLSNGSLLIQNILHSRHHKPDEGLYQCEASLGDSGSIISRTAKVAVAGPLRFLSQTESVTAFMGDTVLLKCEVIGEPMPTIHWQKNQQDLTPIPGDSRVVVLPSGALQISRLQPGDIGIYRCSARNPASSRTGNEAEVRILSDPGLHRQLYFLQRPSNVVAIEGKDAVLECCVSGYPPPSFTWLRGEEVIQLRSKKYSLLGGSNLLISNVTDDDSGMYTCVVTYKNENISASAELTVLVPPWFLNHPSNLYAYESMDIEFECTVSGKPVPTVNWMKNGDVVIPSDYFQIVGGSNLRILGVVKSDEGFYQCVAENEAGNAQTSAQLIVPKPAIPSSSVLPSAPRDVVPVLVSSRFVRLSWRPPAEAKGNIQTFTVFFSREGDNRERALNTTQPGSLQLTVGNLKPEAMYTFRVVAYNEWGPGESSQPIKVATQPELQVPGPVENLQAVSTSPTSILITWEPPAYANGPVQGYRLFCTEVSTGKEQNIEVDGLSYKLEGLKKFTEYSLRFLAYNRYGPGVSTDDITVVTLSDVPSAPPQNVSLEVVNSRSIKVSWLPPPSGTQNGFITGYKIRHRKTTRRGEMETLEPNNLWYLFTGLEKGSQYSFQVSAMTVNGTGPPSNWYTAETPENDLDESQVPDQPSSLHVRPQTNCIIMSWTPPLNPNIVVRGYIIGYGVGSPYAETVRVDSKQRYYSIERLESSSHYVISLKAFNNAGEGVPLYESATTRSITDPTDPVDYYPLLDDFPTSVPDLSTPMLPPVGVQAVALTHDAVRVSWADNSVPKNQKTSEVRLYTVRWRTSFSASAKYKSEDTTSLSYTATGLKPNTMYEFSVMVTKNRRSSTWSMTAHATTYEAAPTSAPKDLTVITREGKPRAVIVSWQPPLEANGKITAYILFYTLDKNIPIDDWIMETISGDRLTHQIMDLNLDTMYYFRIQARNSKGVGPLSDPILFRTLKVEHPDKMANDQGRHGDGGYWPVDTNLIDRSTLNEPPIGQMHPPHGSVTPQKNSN
As to the kind of experiment: ELISA on coated protein. (In an ELISA, binding on a coated surface is turned into a signal by an enzyme label.)

The target in the next assay is T3, IL13RA1.
T3 construct: also called IL13RA1-Fc-His (R&D Systems)
T3 chain: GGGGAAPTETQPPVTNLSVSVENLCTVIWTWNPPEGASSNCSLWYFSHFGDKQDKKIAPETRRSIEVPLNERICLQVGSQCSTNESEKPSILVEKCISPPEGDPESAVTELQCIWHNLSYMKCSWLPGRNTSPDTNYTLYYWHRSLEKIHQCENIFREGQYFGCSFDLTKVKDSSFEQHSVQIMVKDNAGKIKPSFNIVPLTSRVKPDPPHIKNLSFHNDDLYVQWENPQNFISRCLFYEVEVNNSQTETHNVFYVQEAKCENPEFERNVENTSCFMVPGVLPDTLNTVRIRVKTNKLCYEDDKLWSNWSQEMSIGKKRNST
Briefly: ELISA on coated protein.

The target of a further assay is T4, ICAM1-Fc (R&D Systems) (human, UniProt P05362 28-480).
T4 construct: Bought; also called ICAM-1/CD54; not shown: Fc of the bought fusion protein
T4 sequence (P05362 28-480): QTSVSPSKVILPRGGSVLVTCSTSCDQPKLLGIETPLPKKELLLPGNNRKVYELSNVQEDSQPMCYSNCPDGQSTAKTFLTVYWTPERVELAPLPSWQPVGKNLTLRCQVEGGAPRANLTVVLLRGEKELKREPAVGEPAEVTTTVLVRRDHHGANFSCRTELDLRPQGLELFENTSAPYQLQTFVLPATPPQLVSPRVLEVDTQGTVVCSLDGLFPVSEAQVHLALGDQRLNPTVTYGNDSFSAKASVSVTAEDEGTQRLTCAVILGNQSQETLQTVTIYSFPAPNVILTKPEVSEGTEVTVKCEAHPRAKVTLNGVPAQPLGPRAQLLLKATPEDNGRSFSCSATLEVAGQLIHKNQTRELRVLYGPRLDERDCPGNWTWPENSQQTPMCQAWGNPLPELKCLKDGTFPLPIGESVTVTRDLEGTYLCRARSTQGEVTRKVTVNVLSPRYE
As to the kind of experiment: ELISA on coated protein.

B1: HW-56 chimeric rabbit-human IgG1 LA/LA/PG (antibody, V domains shown)
VH: QSVKESEGGLFKPTDTLTLTCTASGFTVSTNAVTWVRQAPGNGLEYIGTIGRSGSAYFASWAKRRSTLTRDINLNTVTLKMTSLTAADTATYFCVRGSPGYRTAISIWGPGTLVTISS
VL: AVMTQTPSSTSAAVEGTVTINCQASQSISNRLSWFQQKPGQPPKLLIYQASTLASGVPSRFKGSGSGTEFTLTISGVQREDAATYYCLGSYSSSDASFGGGTKLEIKR
notes: Fc-silenced (L234A/L235A/P329G) IgG1, kappa; Alexa Fluor 647-labeled in single-step flow cytometry; Cluster C-45
On to B1, for which the “Cells stained (%)” value in assay [1] worked out at 99.6%; in assay [2], 99.7%.

B2: HW-42 chimeric rabbit-human IgG1 LA/LA/PG (antibody, V domains shown)
VH: QSVKESEGGLFKPADTLTLTCTVSGFSLSSNEISWVRQAPGEGLEYIGIIDTGGRAYYAVWARSRSTITRNTNLNTVTLKMTSLTAADTATYFCARGGVDTEWYAFSSWGPGTLVTVPS
VL: SFVLTQPASVQVNLGQTVSLTCTADTLSRRYASWYQQKPGQAPVLLIFRDTSRPSGVPDRFSGSSSGDTATLTISGAQAGDEADYYCATSDGSGSNYQYVFGGGTQLTVTG
notes: Fc-silenced (L234A/L235A/P329G) IgG1, lambda; Alexa Fluor 647-labeled in single-step flow cytometry; Cluster C-1
As for B2, the binding result with DCC and in the assay with IL13RA1 was “no binding (tested: 150 ng IgG1 per well)” each time.

B3: HW-113 chimeric rabbit-human IgG1 LA/LA/PG (antibody, V domains shown)
VH: QKQLVESGGGLVQPGGSLTLTCTVSGFSLNKYYMGWFRQAPGKGLEWIGVISRSGDTYYSSWAKGRFTISKASTTVDLRITSPTTEDTATYFCARDASSPGFHGDRLDLWGQGTLVTVSS
VL: SFVLTQPASVQVNLGQTVSLTCTADTLSRSYASWYQQKPGQAPVLLIYRDTSRPSGVPDRFSGSSSGNTATLTISGAQAGDEADYYCATSDGIGSNYLWVFGGGTQLTVTG
notes: Fc-silenced (L234A/L235A/P329G) IgG1, lambda; Alexa Fluor 647-labeled in single-step flow cytometry
Take B3: the binding result with DCC and in the assay with IL13RA1 was “no binding (tested: 150 ng IgG1 per well)” throughout.

B4: HW-28 chimeric rabbit-human IgG1 LA/LA/PG (antibody, V domains shown)
VH: QKQLVESGGRLVTPGTPLTLTCTASGFSLSSNAMSWVRQAPGEGLQWIGTISSGGSTYYASWAKGRFTISKTSTTVTLKMTSLTTEDTATYFCARGADLHRLWGPGTLVTVSS
VL: SFVLTQPASVQVNLGQTVSLTCTGKPLSRSFASWYQQKPGQAPVLVIYRDTSRPSGVPDRFSGSSSGNTATLTISGAQAGDEADYYCATSDGSGSSYQYVFGGGTQLTVTG
notes: Fc-silenced (L234A/L235A/P329G) IgG1, lambda; Alexa Fluor 647-labeled in single-step flow cytometry; Cluster C-45
Take B4: the “Cells stained (%)” value in assay [1] and in assay [2] was 98.5% throughout.

B5: HW-25 chimeric rabbit-human IgG1 LA/LA/PG (antibody, V domains shown)
VH: QSLEESGGRLVTPGTPLTLTCTVSGFSLSSYAMGWVRQAPGKGLEWIGIIDSRGSTYYATWAKGRFTISKTSTTVDLKITSPTTEDTATYFCAREDSYYYDSFNLWGPGTLVTVSS
VL: SFVLTQPASVQVNLGQTVSLTCTADTLSRRYASWYQQKPGQAPVLLIYRDTSRPSGVPDRFSGSSSGNTATLTISGAQAGDEADYYCATSDGSGSSYQCVFGGGTQLTVTG
notes: as for B2
As for B5, the binding result with DCC and with IL13RA1 was “no binding (tested: 150 ng IgG1 per well)” throughout.

B6: HW-70 chimeric rabbit-human IgG1 LA/LA/PG (antibody, V domains shown)
VH: QSLEESGGRLVTPGTPLTLTCTVSGFSLSSNAMSWVRQAPGKGLEWIGTIDGYGYTYYASWAKGRFTVSKTSTTVDLKITSPTTEDTATYFCAREIYLGSNFWGPGTLVTISS
VL: SFVLTQPASVQVNLGQTVSLTCTADTLSRRYASWYQQKPGQAPVLLIYRDTSRPSGVPDRFSGSSSGNTATLTISGAQAGDEADYYCATADGSGSSYQFVFGGGTQLTVTG
notes: as for B2
In the case of B6, the binding result with DCC and with IL13RA1 was “no binding (tested: 150 ng IgG1 per well)” throughout.

B7: HW-1 chimeric rabbit-human IgG1 LA/LA/PG (antibody, V domains shown)
VH: QSLEESGGGLFKPTDTLTLTCTASGFSLGSSYAISWVRQAPGKELEWIGTIDSGRAYYARWAKSRSTITRNTNENTVTLKMTSLTAADTATYFCARDLIPTYSQDIWGPGTLVTISS
VL: SFVLTQPASVQVNLGQTVSLTCTADTLSRRYASWYQQKPGQAPVLLIYRDTSRPSGVPDRFSGSSSGNTATLTISGAQAGDEADYYCATSDGSGNSYQYVFGGGTQLTVTS
notes: Fc-silenced (L234A/L235A/P329G) IgG1, lambda; Alexa Fluor 647-labeled in single-step flow cytometry; Prototype of cluster C-1
On to B7, for which the binding result with ICAM1-Fc (R&D Systems), with DCC and with IL13RA1 was “no binding (tested: 150 ng IgG1 per well)” each time.

B8: HW-17 chimeric rabbit-human IgG1 LA/LA/PG (antibody, V domains shown)
VH: QSLGESRGRLVTPDETLTLTCTVSGIDLSSNAMSWVRQAPGEGLEWIGTINTGGRAYYASWAKGRFTISRTSTTVDLKMTSLTTEDTATYFCARERYSDGRAYDIWGPGTLVTISS
VL: SFVLTQPASVQVNLGQTVSLTCTADTLSRRYASWYQQKPGQAPVLLIYTDSNRPSGIPDRFSGSSSGNTATLTISGAQAGDEADYYCATDDGSGSIYQYVFGGGTQLTVTG
notes: as for B2
For B8, the binding result in the assay with ICAM1-Fc (R&D Systems), in the assay with DCC and with IL13RA1 was “no binding (tested: 150 ng IgG1 per well)” each time.

B9: HW-45 chimeric rabbit-human IgG1 LA/LA/PG (antibody, V domains shown)
VH: QKQLVESGGRLVTPGTPLTLTCTVSGFSLSSYAMGWFRQAPGKGLEWIGIINSYGSTYYASWAKGRFTISKTSTTVDLKITSPTTEDTATYFCGRRIGSARFDPWGPGTLVTVSS
VL: SFVLTQPASVQVNLGQTVSLTCTADTLSRSYASWYQQKPGQAPVLLIYRDTRRPSGVPDRFSGSSSGNTATLTISGAQAGDEADYYCATSDGSGSSYRLVFGGGTQLTVTG
notes: Fc-silenced (L234A/L235A/P329G) IgG1, lambda; Alexa Fluor 647-labeled in single-step flow cytometry; Prototype of cluster C-45
For B9, the results for the “Cells stained (%)” value in assay [1] and in assay [2] were 97% and 97.9%, respectively.

B10: HW-81 chimeric rabbit-human IgG1 LA/LA/PG (antibody, V domains shown)
VH: QKQLVESGGGLVTPGGTLTLTCTVSGFSLSSNGVSWVRQAPGKGLEYIGLIRSIGSTYYATWAKGRFTISKTSTTVDLKITSPTTEDTATYFCARGGYRNGFKLWGPGTLVTVSS
VL: QPVLTQSPSVSAALGASAKLTCTLSSAHKTYYIEWYQQQHPGKAPRYLMQLQSDGSYTKGTGVPDRFSGSSSGADRYLIISSVQAEDEADYICGVIDSAVYVFGGGTQLTVTG
notes: as for B4
On to B10, for which the “Cells stained (%)” value was 99.8% in assay [1] and 99.7% in assay [2].

B11: HW-16 chimeric rabbit-human IgG1 LA/LA/PG (antibody, V domains shown)
VH: QSLEESGGRLVTPGTPLTLTCTASGFSLSSYAMSWVRQAPGKGLEWIGTMPTGGGTYYASWAKGRFTISKTSTTVDLQITSPTTEDTATYFCAKHWNIWGPGTLVTISS
VL: DIVLTQTPSSTSTAVGDTVTINCRASQSIGRNLAWFQQKPGQPPKLLIYRASNLASGVPSRFKGSGSRTQFTLTISGVQREDAATYYCLGSYSSSDTAFGGGTELEILR
notes: as for B1
Consider B11, for which the “Cells stained (%)” value in assay [1] amounted to 99%; in assay [2] it was 99.1%.

Values taken from patent US20260049134A1 (UNIVERSITY OF FLORIDA RESEARCH FOUNDATION, published 2026).
